Assay results as given in IntAct's records for PubMed 12869544.

B1: Translocase of chloroplast 33, chloroplastic (Arabidopsis thaliana (Mouse-ear cress)), O23680 (parent)
chain: MGSLVREWVGFQQFPAATQEKLIEFFGKLKQKDMNSMTVLVLGKGGVGKSSTVNSLIGEQVVRVSPFQAEGLRPVMVSRTMGGFTINIIDTPGLVEAGYVNHQALELIKGFLVNRTIDVLLYVDRLDVYRVDELDKQVVIAITQTFGKEIWCKTLLVLTHAQFSPPDELSYETFSSKRSDSLLKTIRAGSKMRKQEFEDSAIAVVYAENSGRCSKNDKDEKALPNGEAWIPNLVKAITDVATNQRKAIHVDKKMVDGSYSDDKGKKLIPLIIGAQYLIVKMIQGAIRNDIKTSGKPL

Variants of: B1
Conditions: with tc159_arath TOC159, O81283
Chain of tc159_arath TOC159, O81283 (O81283 whole entry): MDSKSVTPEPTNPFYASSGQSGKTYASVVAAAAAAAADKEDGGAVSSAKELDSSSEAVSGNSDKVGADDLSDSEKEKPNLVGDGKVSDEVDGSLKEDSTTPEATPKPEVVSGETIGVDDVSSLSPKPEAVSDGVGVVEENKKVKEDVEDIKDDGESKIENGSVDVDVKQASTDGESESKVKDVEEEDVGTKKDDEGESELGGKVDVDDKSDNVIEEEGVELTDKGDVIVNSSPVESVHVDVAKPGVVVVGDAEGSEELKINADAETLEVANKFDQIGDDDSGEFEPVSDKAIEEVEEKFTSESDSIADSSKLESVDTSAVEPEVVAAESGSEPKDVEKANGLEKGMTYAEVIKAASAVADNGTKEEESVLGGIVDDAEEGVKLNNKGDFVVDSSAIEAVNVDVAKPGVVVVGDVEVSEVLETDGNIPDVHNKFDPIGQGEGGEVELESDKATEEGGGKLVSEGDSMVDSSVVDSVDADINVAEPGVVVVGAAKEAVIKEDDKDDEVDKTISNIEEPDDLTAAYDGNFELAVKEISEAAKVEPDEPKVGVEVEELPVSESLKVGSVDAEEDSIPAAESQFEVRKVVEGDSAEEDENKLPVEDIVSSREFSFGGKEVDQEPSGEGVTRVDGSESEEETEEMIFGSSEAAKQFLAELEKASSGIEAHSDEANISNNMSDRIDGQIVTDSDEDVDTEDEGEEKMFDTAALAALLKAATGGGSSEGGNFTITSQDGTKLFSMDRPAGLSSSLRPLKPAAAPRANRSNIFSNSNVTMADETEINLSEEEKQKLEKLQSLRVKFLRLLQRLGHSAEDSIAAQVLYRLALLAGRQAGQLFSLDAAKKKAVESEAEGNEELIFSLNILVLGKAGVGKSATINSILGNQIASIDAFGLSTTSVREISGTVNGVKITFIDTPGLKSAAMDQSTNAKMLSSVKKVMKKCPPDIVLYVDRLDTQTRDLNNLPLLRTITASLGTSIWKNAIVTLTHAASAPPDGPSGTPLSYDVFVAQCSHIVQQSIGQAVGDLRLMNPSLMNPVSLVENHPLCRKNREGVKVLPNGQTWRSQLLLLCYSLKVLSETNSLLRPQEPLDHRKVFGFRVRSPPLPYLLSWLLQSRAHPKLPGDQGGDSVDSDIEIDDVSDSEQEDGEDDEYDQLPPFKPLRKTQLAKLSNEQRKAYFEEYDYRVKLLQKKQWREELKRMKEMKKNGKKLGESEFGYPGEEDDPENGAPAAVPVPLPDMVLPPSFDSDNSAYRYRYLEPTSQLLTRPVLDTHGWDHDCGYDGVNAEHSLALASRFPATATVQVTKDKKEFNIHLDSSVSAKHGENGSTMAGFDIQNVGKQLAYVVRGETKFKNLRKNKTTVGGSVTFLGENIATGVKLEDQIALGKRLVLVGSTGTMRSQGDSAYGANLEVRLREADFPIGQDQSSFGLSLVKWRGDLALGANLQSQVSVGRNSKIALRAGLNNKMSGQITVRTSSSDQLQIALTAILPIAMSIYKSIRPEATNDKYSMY

Row | effect of a mutation on the interaction | Variant
1 | decreasing interaction | MGSLVREWVGFQQFPAATQEKLIEFFGKLKQKDMNSMTVLVLGKGGVGKSSTVNSLIGEQVVRVSPFQAEGLRPVMVSRTMGGFTINIIDTPGLVEAGYVNHQALELIKGFLVNRTIDVLLYVDRLDVYAVDELDKQVVIAITQTFGKEIWCKTLLVLTHAQFSPPDELSYETFSSKRSDSLLKTIRAGSKMRKQEFEDSAIAVVYAENSGRCSKNDKDEKALPNGEAWIPNLVKAITDVATNQRKAIHVDKKMVDGSYSDDKGKKLIPLIIGAQYLIVKMIQGAIRNDIKTSGKPL [R130A]
